Source: patent US20230220098A1, “THERAPEUTIC DRUG FOR POLYCYTHEMIA” (PERSEUS PROTEOMICS INC., priority 2019, published 2023)

Assays:
[1] = target: T1, soluble wild-type TfR (sTfR) and TfR mutant fragments (MF1 to MF7) (Homo sapiens, UniProt P02786); experiment: ELISA reactivity with soluble wild-type TfR and TfR mutant fragments (binding site identification); conditions: suggested from mutant fragment reactivity
T1 construct: A human TfR extracellular domain (the amino acids at positions 89 to 760); made in house; host or cells: Expi293 cells
T1 sequence (P02786 89-760, change not shown): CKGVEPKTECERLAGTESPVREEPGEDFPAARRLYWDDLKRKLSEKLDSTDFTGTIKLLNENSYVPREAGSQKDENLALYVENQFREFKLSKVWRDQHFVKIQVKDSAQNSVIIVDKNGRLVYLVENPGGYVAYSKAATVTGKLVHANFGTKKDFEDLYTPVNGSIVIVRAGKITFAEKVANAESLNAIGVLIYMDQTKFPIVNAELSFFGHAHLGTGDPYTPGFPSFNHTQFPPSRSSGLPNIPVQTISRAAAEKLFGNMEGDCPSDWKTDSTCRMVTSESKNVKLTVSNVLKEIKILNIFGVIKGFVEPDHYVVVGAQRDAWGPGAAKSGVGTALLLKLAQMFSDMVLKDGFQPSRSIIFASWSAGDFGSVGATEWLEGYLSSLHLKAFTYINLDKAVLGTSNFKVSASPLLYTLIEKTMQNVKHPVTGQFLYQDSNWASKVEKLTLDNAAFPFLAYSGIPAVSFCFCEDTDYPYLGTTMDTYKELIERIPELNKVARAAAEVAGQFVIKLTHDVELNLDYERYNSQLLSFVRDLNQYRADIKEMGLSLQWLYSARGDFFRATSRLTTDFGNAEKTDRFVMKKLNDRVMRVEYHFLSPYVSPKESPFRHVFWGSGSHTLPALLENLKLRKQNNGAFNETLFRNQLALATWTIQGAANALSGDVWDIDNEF
Method: (§1) A neomycin resistance gene and a DHFR gene were incorporated into the expression vector pCAGGS (Non-Patent Document 2: Niwa et al. 1991), and thereafter, the synthesized genes were each inserted into the multicloning site of the obtained expression vector, so as to produce a pCAGGS-Neo-DHFR-sTFR-myc-his expression plasmid. Using Expifectamine (Invitrogen), the Expi293 cells (Invitrogen) were transfected with the above-described plasmid, and were then cultured at 37° C. in 8% CO2 at 135 rpm for 5 days. Thereafter, a culture supernatant was recovered by centrifugation. A HisTrapHP (GE Healthcare) column was connected with AKTA prime (GE Healthcare), and sTfR or MF1 to MF7 were then purified using 20 mM Imidazole/DPBS as a binding buffer and 500 mM Imidazole/DPBS as an elution buffer. The eluted protein was subjected to buffer exchange with 30 mM HEPES, 5% trehalose, pH 7.2, by using a Zeba spin column (Thermo scientific).
(§2) The thus purified sTfR or MF1 to MF7 were diluted with PBST (Phosphate Buffered Saline with Tween 20, TaKaRa), and the diluted solutions were prepared at 7 stages by 3-fold dilution from 600 ng/mL. […] Thereafter, the absorbance at 450 nm (ref. 620 nm) was measured using a plate reader.

[2] = test system: soluble wild-type TfR (sTfR) and TfR mutant fragments (MF1 to MF7); experiment: as above; set-up: species or system human; conditions: TfR436 1 ug/mL; MF5 (positions 629, 630 and 633 substituted); FIG. 2
Method: as §1, §2

erythroblast cells = experiment: Growth of normal erythroblast cells derived from CD34-positive cells; assay type: cell-based; conditions: FIG. 4
Method: Frozen CD34-positive cells (POIETICS) were thawed at 37° C., and were then suspended in IMDM (GIBCO)+30% FBS (Sigma-Aldrich) and 100 U/ml DNase (QIAGEN), and thereafter, the cells were […] according to the instructions of the manufacturer. Thereafter, the cells were adjusted to 5×10^4 cells/ml with a culture medium prepared by adding 2-ME (50 μmol/L) (GIBCO), hIL-3 (100 U/ml) (Milteny biotec), hEPO (4 U/ml) (Roche), and hSCF (50 ng/ml) (Peprotech) to an SF-03 medium (EIDIA Co., Ltd.). The resulting cells were dispensed into a 24-well plate in an amount of 1 ml/well, and were then cultured at 37° C. in a 5% CO2 incubator. Seven days later, the cells were seeded into a 96-well plate, and the antibody was then added thereto in an amount of 0.15 ng/mL to 10 μg/mL, followed by culturing the mixture. A well without addition of the antibody was used as a control. Ninety six hours later, each well was fully stirred by pipetting, and 150 μl of the cell lysate was transferred into a V-bottom plate. Then, 20 μI of the transferred cell lysate was absorbed by FACS Calibur, and the number of cells was then counted. The value obtained by multiplying the obtained cell number by 10 was set to be the number of cells per well, and the growth percentage of the cells at each concentration of the antibody was then calculated, while the mean value of the control was set to be 100%.

HEL cells = experiment: Combined effects of TfR436 and hydroxyurea on cell growth and cell death; assay type: cell-based; conditions: 72 hours
Method: HEL cells were cultured in an RPMI-1640 (Sigma-Aldrich)+10% FBS (Sigma-Aldrich)+1% PenStrep (Gibco) medium, and were then adjusted to 20000 cells/mL with the same medium as described above. Hydroxyurea (Wako Pure Chemical Industries, Ltd.) was weighed and was then dissolved in a concentration of 100 mM in distilled water for injection (Otsuka Pharmaceutical). The thus adjusted cell solution was seeded on a 96-well plate (Thermo SCIENTIFIC) in an amount of 100 μL/well. […]
From the plate after completion of the culture, the cultured cells in each well were dispensed into a V-bottom plate (Costar) in an amount of 100 μL, while pipetting. […] Then, the fluorescence of FL2 and the number of cells were measured. From the obtained results, the number of living cells (PI negative) and the number of dead cells (PI positive) were calculated, and thereafter, Viability (the number of PI-negative cells/the total number of cells×100) (%) and cell death percentage (100−Viability) (%) were calculated. Furthermore, the growth percentage in each well was calculated, when the number of living cells in the cell growth control was set to be 100%. […]

B1: TfR436: anti-human transferrin receptor antibody, VH SEQ ID NO: 7 and VL SEQ ID NO: 8, described in WO2014/073641; called PPMX-T003 in Tables 3 and 4 (antibody, listed as Homo sapiens, V domains shown)
VH: DVQLVQSGGGVVQPGRSLRLSCAASGFPFKSYGMHWVRQAPGKGLEWVAVISYDGSNKYYADSVKGRFTISRDNSKNTLYLQMNSLRGEDTAVYYCARDSNFWSGYYSPVDVWGQGTTVTVSS
VL: NFMLTQPHSVSESPGKTVTISCTRSSGSIASNSVQWYQQRPGSAPITVIYEDTQRPSGVPDRFSGSIDSSSNSASLTISGLQTEDEADYYCQSYDSAYHWVFGGGTKLAVL
epitope recognized [1]: amino acids at positions 629 to 633 of TfR
reactivity with TfR mutant fragment MF5 [2]: a reduction in the reactivity
growth of erythroblast cells (erythroblast cells; 0.15 ng/mL to 10 μg/mL, 96 hours): suppressed the growth
GI50 (erythroblast cells; 96 hours culture): 125 ng/mL
cell growth inhibition, combined use with hydroxyurea (HEL cells; Table 3): synergistic cell growth inhibition effects were observed from a half or more of combined uses
cell death percentage, combined use with hydroxyurea (HEL cells; all combined uses except lowest concentrations of both, Table 4): synergistic cell death-enhancing effects
